Measurements from PMC5424357.

Key:
Experiment in all cases: purified protein
Conditions in all cases: optimal conditions (optimum pH 8.0, 30 °C), substrate range stated 0.2–2.4 mM
[1] = system: C#CCOC(=O)[C@@H](C)Oc1ccc(Oc2ncc(Cl)cc2F)cc1
[2] = system: C[C@@H](Oc1ccc(Oc2cnc3cc(Cl)ccc3n2)cc1)C(=O)OCC1CCCO1
[3] = system: CCOC(=O)[C@@H](C)Oc1ccc(Oc2nc3ccc(Cl)cc3o2)cc1
[4] = system: COC(=O)[C@@H](C)Oc1ccc(Oc2ncc(C(F)(F)F)cc2Cl)cc1
[5] = system: CCCCOC(=O)[C@@H](C)Oc1ccc(Oc2ccc(C#N)cc2F)cc1

QpeH (Pseudomonas sp.)
Km [1]: 174.0 ± 4.2 µM | kcat [1]: 37.1 ± 2.9 s⁻¹ | kcat/Km [1]: 210000 ± 20000 M⁻¹ s⁻¹ | Km [2]: 29.5 ± 2.7 µM | kcat [2]: 146 ± 3.3 s⁻¹ | kcat/Km [2]: 4.96e+06 ± 90000 M⁻¹ s⁻¹ | Km [3]: 26.9 ± 4.3 µM | kcat [3]: 162 ± 3.4 s⁻¹ | kcat/Km [3]: 6.01e+06 ± 50000 M⁻¹ s⁻¹ | Km [4]: 113.9 ± 3.8 µM | kcat [4]: 67.4 ± 2.6 s⁻¹ | kcat/Km [4]: 590000 ± 40000 M⁻¹ s⁻¹ | Km [5]: 158.2 ± 3.5 µM | kcat [5]: 41.1 ± 4.1 s⁻¹ | kcat/Km [5]: 260000 ± 30000 M⁻¹ s⁻¹
